From article PMC5095912
Several values for one entry are separate records, joined by “and”; a condition that tells them apart may be missing. Identical values can stand only once.

Target: PKA regulatory subunit RIIα (UniProt P12367)
Assay: native MS; components mixed at equimolar (1:1) ratio in 200 mM NH4OAc, equilibrated at least 10 min at room temperature; nESI on a Synapt G2-Si, 2-5 uM sample; single proteins sprayed alone too; some C + R samples preincubated with staurosporine, K252a or AT13148 before PKI

stoichiometry N: 3 and 4 and 2
Substance: PKA regulatory subunit RIIα (from UniProt P12367 1-401) (natural protein)
